{"source": "patent US20230392126A1", "about": "“TISSUE ORGANOIDS” (priority 2016, published 2023)", "molecules": {"B1": {"name": "hBChE: modified human butyrylcholinesterase (E30-6, SEQ ID NO: 41), cocaine hydrolase, expressed from engineered epidermal cells / skin grafts (protein)", "chain": "MHSKVTIICIRFLFWFLLLCMLIGKSHTEDDIIIATKNGKVRGMNLTVFGGTVTAFLGIPYAQPPLGRLRFKKPQSLTKWSDIWNATKYANSCCQNIDQSFPGFHGSEMWNPNTDLSEDCLYLNVWIPAPKPKNATVLIWIYGGGFQTGTSSLHVYDGKFLARVERVIVVSMNYRVGALGFLALPGNPEAPGNMGLFDQQLALQWVQKNIAAFGGNPKSVTLFGESSGAASVSLHLLSPGSHSLFTRAILQSGSANAPWAVTSLYEARNRTLNLAKLTGCSRENETEIIKCLRNKDPQEILLNEAFVVPYGTALGVNFGPTVDGDFLTDMPDILLELGQFKKTQILVGVNKDEGTWFLVGGAPGFSKDNNSIITRKEFQEGLKIFFPGVSEFGKESILFHYTDWVDDQRPENYREALGDVVGDYNFICPALEFTKKFSEWGNNAFFYYFEHRSSKLPWPEWMGVMHGYEIEFVFGLPLERRDNYTKAEEILSRSIVKRWANFAKYGNPNETQNNSTSWPVFKSTEQKYLTLNTESTRIMTKLRAQQCRFWTSFFPKVLEMTGNIDEAEWEWKAGFHRWNNYMMDWKNQFNDYTSKKESCVGL", "modifications": "Human mutant BChE"}}, "key": {"[1]": {"tested_on": "mouse epidermal cells", "assay": "Expression and secretion of hBChE by immunoblots and ELISA (mouse epidermal cells)", "details": "engineered mouse epidermal cells"}, "[2]": {"assay": "Cocaine hydrolysis activity in vitro (clearance assay with conditioned medium)"}, "[3]": {"assay": "Extinction and ethanol-induced reinstatement of CPP", "assay_type": "in vivo, mouse", "details": "1 g/kg ethanol i.p., specificity control", "description": "Extinction and reinstatement of CPP: Following CPP acquisition, mice underwent extinction, in which the procedure was identical to that in the test day. In each extinction day, mice were allowed to explore the entire chambers for 20 min and time spent in each area was recorded. Extinction was performed until the CPP decreased to a level that was not different from that of the pretest in consecutive two days. On the following day of the last extinction, mice underwent reinstatement procedures, in which mice that were trained for cocaine CPP received an i.p. injection of 15 mg/kg cocaine, and mice that were trained for ethanol CPP received an i.p. injection of 1 g/kg ethanol. Immediate after injection, mice were allowed to explore the entire chambers for 20 min and time spent in each area was recorded.\nSpecific methods: One group of GhBChE and one group of GWT mice (n=9 in each group) were trained for cocaine CPP 7 days after engraftment (FIG. 18A). Mice underwent pretest on Day 1, four days of cocaine conditioning day 2 to Day 5, and CPP test on Day 6. One group of GhBChE and one group of GWT mice (n=8 in each group) were trained for ethanol CPP 7 days after engraftment (FIG. 18B). Mice underwent pretest on Day 1, four ethanol conditioning day 2 to Day 5, and CPP test on Day 6. […]"}, "[4]": {"assay": "Acquisition of cocaine conditioned place preference (CPP)", "assay_type": "in vivo, mouse", "details": "10 mg/kg cocaine i.p., grafted cocaine-naïve mice", "description": "CPP apparatus: The CPP apparatus (FIG. 17; Med Associates, E. Fairfield, VT, USA) consisted of two larger chambers (16.8×12.7×12.7 cm), which were separated by a smaller chamber (7.2×12.7×12.7 cm) as previously described (Yan et al., 2013). […] Time spent in each chamber was measure via photobeam breaks and recorded. CPP was determined on testing days via time spent in the drug-paired side minus time spent in the saline-paired side.\nAcquisition of CPP: A biased CPP procedure was used similar to that from a previous study (Yan et al., 2013). Acquisition of CPP consisted of three sequential procedures—pretest, conditioning, and test. […] On Day 6 (test day) mice were allowed to explore the entire chambers for 20 min and time spent in each area was recorded. […]\nNext, protection against development of cocaine-seeking was assessed using the conditioned place preference (CPP) paradigm, which is thought to model reward learning and seeking because experimental animals approach and remain in contact with cues that have been paired with the effects of the reward. hBChE-expressing cells were grafted to cocaine-naïve mice with GWT animals as controls. […] As an additional control, ethanol CPP was measured after 4 days of conditioning in GhBChE and GWT mice."}, "[5]": {"assay": "hBChE in blood by ELISA, mice grafted with mouse skin organoids", "assay_type": "in vivo", "description": "To efficiently transplant mouse epidermal progenitor cells, a new organotypic culture model with mouse epidermal progenitor cells was developed in vitro by culturing the cells on top of acellularized mouse dermis. Exposure to the air/liquid interface can induce stratification of cultured cells to generate a skin-like organoid in vitro. […] To investigate the potential therapeutic effect of hBChE expression in vivo, we transplanted the organoids to isogenic host animals (CD1 and C57BL/6) (FIGS. 22A and 22B-C). […] Expression of hBChE in grafted animals was stable for more than 10 weeks (FIG. 22H)."}, "[6]": {"tested_on": "epidermal stem cells", "assay": "Anchorage-independent growth in soft agar", "details": "SCC cancer initiating cells as positive control"}}}
{"molecule": "B1", "values": [{"measurement": "expression and secretion of hBChE", "setting": "[1]", "result": "robust expression and secretion of hBChE"}, {"measurement": "cocaine hydrolysis activity of conditioned medium", "setting": "[2]", "result": "significantly induced degradation of cocaine in vitro"}, {"measurement": "ethanol-induced reinstatement of CPP", "setting": "[3]", "result": "similarly reinstated in both GhBChE and GWT mice"}, {"measurement": "cocaine CPP after 4 days of place conditioning", "setting": "[4]", "result": "showed no such preference"}, {"measurement": "duration of stable hBChE expression in grafted animals", "setting": "[5]; hosts with intact immune systems", "result": "more than 10 weeks"}, {"measurement": "level of human BChE in the blood", "setting": "[5]; mice grafted with hBChE-expressing mouse cells", "result": "significantly elevated levels of human BChE in the blood"}, {"measurement": "anchorage-independent growth (tumorigenicity)", "setting": "[6]", "result": "cannot grow in suspension"}]}
